Numbering of substitutions follows the chain as printed. Names may count otherwise.
B1: KRT8_(58–64) G62C segment SGMGCIT (peptide)
peptide: SGMGCIT
notes: G62C is found in people with cryptogenic liver disease; Crystallised as a class-2 parallel steric zipper with isopropanol; also called 58SGMGCIT64; KRT8-G62C segment; source: synthetic peptide, bought: GenScript
B2: KRT8 in human liver tissue extracts (natural protein, human (endogenous in liver tissue), UniProt P05787 1-483, looked up)
chain: MSIRVTQKSYKVSTSGPRAFSSRSYTSGPGSRISSSSFSRVGSSNFRGGLGGGYGGASGMGGITAVTVNQSLLSPLVLEVDPNIQAVRTQEKEQIKTLNNKFASFIDKVRFLEQQNKMLETKWSLLQQQKTARSNMDNMFESYINNLRRQLETLGQEKLKLEAELGNMQGLVEDFKNKYEDEINKRTEMENEFVLIKKDVDEAYMNKVELESRLEGLTDEINFLRQLYEEEIRELQSQISDTSVVLSMDNSRSLDMDSIIAEVKAQYEDIANRSRAEAESMYQIKYEELQSLAGKHGDDLRRTKTEISEMNRNISRLQAEIEGLKGQRASLEAAIADAEQRGELAIKDANAKLSELEAALQRAKQDMARQLREYQELMNVKLALDIEIATYRKLLEGEESRLESGMQNMSIHTKTTSGYAGGLSSAYGGLTSPGLSYSLGSSFGSGAGSSSFSRTSSSRAVVVKKIETRDGKLVSESSDVLPK
notes: keratin-8 (KRT8), endogenous in human liver; monomer band at 52 KDa; also called keratin-8; cytokeratin 8; source: endogenous, extracts of human liver tissue (ASH or HCC)
B3: KRT8_(1–90) Y54H with N-terminal mCherry (domain or fragment, human, UniProt P05787 1-90, looked up)
chain: MSIRVTQKSYKVSTSGPRAFSSRSYTSGPGSRISSSSFSRVGSSNFRGGLGGGHGGASGMGGITAVTVNQSLLSPLVLEVDPNIQAVRTQ
notes: keratin-8 (KRT8), human, head domain, residues 1-90, variant Y54H; Variant found in people with cryptogenic liver disease; source: bacterial cultures, purified (Ni-NTA)
B4: KRT8_(1–90) G62C with N-terminal mCherry (domain or fragment, human, UniProt P05787 1-90, looked up)
chain: B3 chain with H54Y, G62C
notes: keratin-8 (KRT8), human, head domain, residues 1-90, variant G62C; Variant found in people with cryptogenic liver disease; source: bacterial cultures, purified (Ni-NTA)
B5: KRT8_(1–90) G55A with N-terminal mCherry (domain or fragment, human, UniProt P05787 1-90, looked up)
chain: B3 chain with H54Y, G55A
notes: keratin-8 (KRT8), human, head domain, residues 1-90, variant G55A; Variant found in people with cryptogenic liver disease; source: bacterial cultures, purified (Ni-NTA)
B6: KRT8_(1–90), head domain of keratin-8, wild type, with N-terminal mCherry (domain or fragment, human)
chain: SIRVTQKSYKVSTSGPRAFSSRSYTSGPGSRISSSSFSRVGSSNFRGGLGGGYGGASGMGGITAVTVNQSLLSPLVLEVDPNIQAVRTQ
notes: keratin-8 (KRT8), human, head domain, residues 1-90 as stated; No removal of mCherry or the His tag is described; also called WT KRT8_(1-90); wild-type KRT8; source: bacterial cultures, purified (Ni-NTA)
B7: FUS_(1–214), wild type, with N-terminal mCherry (domain or fragment, human, UniProt P35637 1-214, looked up)
chain: MASNDYTQQATQSYGAYPTQPGQGYSQQSSQPYGQQSYSGYSQSTDTSGYGQSSYSSYGQSQNTGYGTQSTPQGYGSTGGYGSSQSSQSSYGQQSSYPGYGQQPAPSSTSGSYGSSSQSSSYGQPQSGSYSQQPSYGGQQQSYGQQQSYNPPQGYGQQNQYNSSSGGGGGGGGGGNYGQDQSSMSSGGGSGGGYGNQDQSGGGGSGGYGQQDRG
notes: FUS, human, residues 1-214; also called wild-type FUS; source: bacterial cultures, purified (Ni-NTA)
B8: KRT8_(52–58)-G55A segment GGYAGAS (peptide)
peptide: GGYAGAS
notes: G55A is found in people with cryptogenic liver disease; Crystallised as an anti-parallel class-6 steric zipper; also called 52GGYAGAS58; source: synthetic peptide, bought: GenScript
B9: KRT8_(58–64) wild-type segment SGMGGIT (peptide)
peptide: SGMGGIT
notes: keratin-8 (KRT8), human, head domain segment, residues 58-64; Crystallised as an amyloid-like fibril of stacked identical strands (anti-parallel class-7 steric zipper) with PEG 1000 and ethanol; also called 58SGMGGIT64; source: synthetic peptide, bought: GenScript

What was measured:
[1] = target: the molecule itself; test: crystal structure; peptide microcrystals grown by hanging drop vapor diffusion; SGMGGIT: 0.1 M phosphate/citrate pH 4.2, 40% ethanol, 5% PEG 1000; SGMGCIT: 0.2 M sodium citrate, 0.1 M HEPES pH 7.5, 20% 2-propanol; GGYAGAS: 2.5 M NaCl, 100 mM sodium acetate pH 4.5, 0.2 M lithium sulfate; data at 100 K
[2] = target: the molecule itself; test: Western blot of tissue extracts; extracts of human liver tissue (three ASH, one HCC) on a gel, blotted with anti-cytokeratin 8 (C51)
[3] = target: the molecule itself; test: X-ray fiber powder diffraction of aggregates; aggregated samples centrifuged, exchanged into water, dried between capillaries; cross-beta pattern
[4] = target: the molecule itself; test: thioflavin T fluorescence on cooling (reversible aggregation, phase separation); same sample concentrations as the aggregation assay; held at 37 °C, cooled to 4 °C for 60 minutes, warmed back to 37 °C

Row | Protein | binding result [1] | binding result [4] | other results
1 | B1 | binds |  | 
2 | B2 |  |  | stoichiometry N [2]: 2
3 | B3 |  |  | binding result [3]: binds
4 | B4 |  | binds | 
5 | B5 |  |  | binding result [3]: binds
6 | B6 |  | binds | 
7 | B7 |  | binds | 
8 | B8 | binds |  | 
9 | B9 | binds |  | 
